This note sets out measurements from paper PMC3839617.

The target in this experiment is neuropilin 1 (human) (UniProt O14786). In words: radioligand binding.
UniProt O14786, sequence (O14786 22-923): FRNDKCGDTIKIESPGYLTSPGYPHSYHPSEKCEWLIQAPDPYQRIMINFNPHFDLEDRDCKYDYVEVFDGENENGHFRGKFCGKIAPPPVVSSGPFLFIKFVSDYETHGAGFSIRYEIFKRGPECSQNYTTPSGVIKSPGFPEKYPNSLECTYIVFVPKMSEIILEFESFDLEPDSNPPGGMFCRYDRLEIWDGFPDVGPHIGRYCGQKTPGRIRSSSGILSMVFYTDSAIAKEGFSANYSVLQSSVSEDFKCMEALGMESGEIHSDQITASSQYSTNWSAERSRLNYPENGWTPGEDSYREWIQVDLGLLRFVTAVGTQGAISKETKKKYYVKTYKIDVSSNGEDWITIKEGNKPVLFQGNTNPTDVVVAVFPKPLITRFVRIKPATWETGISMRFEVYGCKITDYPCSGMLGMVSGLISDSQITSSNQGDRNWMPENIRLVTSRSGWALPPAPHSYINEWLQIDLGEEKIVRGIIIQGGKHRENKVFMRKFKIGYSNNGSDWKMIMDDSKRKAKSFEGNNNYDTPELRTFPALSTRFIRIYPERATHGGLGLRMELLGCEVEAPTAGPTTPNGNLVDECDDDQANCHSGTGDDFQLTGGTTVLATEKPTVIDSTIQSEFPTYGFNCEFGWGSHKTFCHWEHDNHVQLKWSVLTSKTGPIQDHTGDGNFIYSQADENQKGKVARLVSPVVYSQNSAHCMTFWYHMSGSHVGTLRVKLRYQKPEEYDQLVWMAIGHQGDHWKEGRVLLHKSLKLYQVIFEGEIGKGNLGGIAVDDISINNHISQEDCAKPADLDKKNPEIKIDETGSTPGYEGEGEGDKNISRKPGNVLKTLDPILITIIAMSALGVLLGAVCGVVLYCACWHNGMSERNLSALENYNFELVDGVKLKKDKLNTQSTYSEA

As to “VEGF labelled by radioactive iodine (from UniProt P15692 1-395) (ligand)”, the I125VEGF bound was 413 fmol/µg and the I125VEGF bound in the presence of SN worked out at 504 fmol/µg.
